From patent publication US20250002605A1 (WUHAN YZY BIOPHARMA, published 2025)

B1: M701A (bispecific antibody, human IgG1, kappa)
light: ELVMTQSPSSLTVTAGEKVTMSCKSSQSLLNSGNQKNYLTWYQQKPGQPPKLLIYWASTRESGVPDRFTGSGSGTDFTLTISSVQAEDLAVYYCQNDYSYPLTFGAGTKLEIKRTVAAPSVFIFPPSDEQLKSGTASVVCLLNNFYPREAKVQWKVDNALQSGNSQESVTEQDSKDSTYSLSSTLTLSKADYEKHKVYACEVTHQGLSSPVTKSFNRGEC
heavy: EVQLLEQSGAELVRPGTSVKISCKASGYAFTNYWLGWVKQRPGHGLEWIGDIFPGSGNIHYNEKFKGKATLTADKSSSTAYMQLSSLTFEDSAVYFCARLRNWDEPMDYWGQGTTVTVSSASTKGPSVFPLAPSSKSTSGGTAALGCLVKDYFPEPVTVSWNSGALTSGVHTFPAVLQSSGLYSLSSVVTVPSSSLGTQTYICNVNHKPSNTKVDKKVEPKSCDKTHTCPPCPAPELLGGPSVFLFPPKPKDTLMISRTPEVTCVVVDVSHEDPEVKFNWYVDGVEVHNAKTKPREEQYNSTYRVVSVLTVLHQDWLNGKEYKCKVSNKALPAPIEKTISKAKGQPREPQVYTLPPSRDELTKNQVSLWCLVKGFYPSDIAVEWESNGQPENNYDTTPPVLDSDGSFFLYSDLTVDKSRWQQGNVFSCSVMHEALHNHYTQKSLSLSPGK
chain: not shown
notes: YBODY format; also called bispecific antibody M701A
B2: M701B (bispecific antibody, human IgG1, kappa)
light: B1 light
heavy: B1 heavy
chain: QVQLVESGGGVVQPGRSLRLSCAASGFTFSTYAMNWVRQAPGKGLEWVARIRSKYNNYATYYADSVKDRFTISRDDSKNTLYLQMNSLRAEDTAVYYCARHGNFGNSYVSWFAYWGQGTLVTVSSGGGGSGGGGSGGGGSQTVVTQEPSLTVSPGGTVTLTCRSSTGAVTTSNYANWVQQKPGQAPRGLIGGTNKRAPGVPARFSGSLLGGKAALTLSGVQPEDEAEYYCALWYSNLWVFGGGTKVEIKGAAAEPKSCDKTHTCPPCPAPELLGGPSVFLFPPKPKDTLMISRTPEVTCVVVDVSHEDPEVKFNWYVDGVEVHNAKTKPREEQYNSTYRVVSVLTVLHQDWLNGKEYKCKVSNKALPAPIEKTISKAKGQPREPQVYTLPPSRDELTKNQVSLTCRVKGFYPSDIAVEWESNGQPENNYKTTPPVLKSDGSFFLASKLTVDKSRWQQGNVFSCSVMHEALHNHYTQKSLSLSPGK
notes: YBODY format; also called bispecific antibody M701B
B3: M701K (bispecific antibody, human IgG1, kappa)
light: B1 light
heavy: EVQLLEQSGAELVRPGTSVKISCKASGYAFTNYWLGWVKQRPGHGLEWIGDIFPGSGNIHYNEKFKGKATLTADKSSSTAYMQLSSLTFEDSAVYFCARLRNWDEPMDYWGQGTTVTVSSASTKGPSVFPLAPSSKSTSGGTAALGCLVKDYFPEPVTVSWNSGALTSGVHTFPAVLQSSGLYSLSSVVTVPSSSLGTQTYICNVNHKPSNTKVDKKVEPKSCDKTHTCPPCPAPPVAGPSVFLFPPKPKDTLMISRTPEVTCVVVDVSHEAPEVQFNWYVDGVEVHNAKTKPREEQFNSTFRVVSVLTVVHQDWLNGKEYKCKVSNKGLPAPIEKTISKTKGQPREPQVYTLPPCRDELTKNQVSLWCLVKGFYPSDIAVEWESNGQPENNYKTTPPVLDSDGSFFLYSKLTVDKSRWQQGNVFSCSVMHEALHNHYTQKSLSLSPGK
chain: QVQLVESGGGVVQPGRSLRLSCAASGFTFSTYAMNWVRQAPGKGLEWVARIRSKYNNYATYYADSVKDRFTISRDDSKNTLYLQMNSLRAEDTAVYYCARHGNFGNSYVSWFAYWGQGTLVTVSSGGGGSGGGGSGGGGSQTVVTQEPSLTVSPGGTVTLTCRSSTGAVTTSNYANWVQQKPGQAPRGLIGGTNKRAPGVPARFSGSLLGGKAALTLSGVQPEDEAEYYCALWYSNLWVFGGGTKVEIKGAAAEPKSCDKTHTCPPCPAPPVAGPSVFLFPPKPKDTLMISRTPEVTCVVVDVSHEAPEVQFNWYVDGVEVHNAKTKPREEQFNSTFRVVSVLTVVHQDWLNGKEYKCKVSNKGLPAPIEKTISKTKGQPREPQVCTLPPSRDELTKNQVSLSCAVKGFYPSDIAVEWESNGQPENNYKTTPPVLDSDGSFFLVSKLTVDKSRWQQGNVFSCSVMHEALHNHYTQKSLSLSPGK
notes: YBODY format; also called bispecific antibody M701K

What was measured:
[1] = molecular target: T1, human EpCAM antigen (SB, Cat: 10694-H08H) (human, UniProt P16422 24-265); assay: SPR (Biacore T200), antigen amine-coupled on CM5, antibody as analyte, 1:1 fit; D14 sample after 14 days at 40 C
T1 construct: Bought antigen immobilised on a CM5 chip
T1 sequence (looked up): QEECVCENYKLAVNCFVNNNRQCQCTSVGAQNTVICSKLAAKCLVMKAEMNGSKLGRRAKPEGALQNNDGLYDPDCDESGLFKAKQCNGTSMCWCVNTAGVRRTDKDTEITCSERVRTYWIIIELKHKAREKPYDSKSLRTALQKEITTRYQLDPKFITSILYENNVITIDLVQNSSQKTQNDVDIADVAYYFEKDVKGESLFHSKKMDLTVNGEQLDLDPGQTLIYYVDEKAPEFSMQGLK

[2] = molecular target: T2, human EpCAM on the cell surface (human, UniProt P16422 24-314); assay: cell-based or functional assay
T2 sequence (looked up): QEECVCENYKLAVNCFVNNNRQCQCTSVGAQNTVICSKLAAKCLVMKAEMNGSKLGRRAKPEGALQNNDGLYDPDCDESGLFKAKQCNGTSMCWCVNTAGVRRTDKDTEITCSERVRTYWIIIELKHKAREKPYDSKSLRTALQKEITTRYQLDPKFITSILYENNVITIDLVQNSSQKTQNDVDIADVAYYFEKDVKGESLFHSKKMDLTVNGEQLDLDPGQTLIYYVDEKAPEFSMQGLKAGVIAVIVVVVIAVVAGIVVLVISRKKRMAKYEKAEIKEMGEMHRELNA

CD3 on Jurkat cells [3] = assay: cell-based or functional assay
[4] = molecular target: T2, human EpCAM on the cell surface; assay: flow cytometry (FACS) on HCT116 cells, PE anti-human IgG Fc detection
[5] = molecular target: T1, human EpCAM antigen (SB, Cat: …); assay: SPR (Biacore T200), antigen amine-coupled on CM5, antibody as analyte, 1:1 fit; D0 sample
[6] = molecular target: T2, human EpCAM on the cell surface; assay: cell-based or functional assay; remark: listed apart in the source
CD3 on Jurkat cells [7] = assay: cell-based or functional assay; remark: listed apart in the source
[8] = molecular target: T3, human CD3 antigen (SB, Cat: CT038-H2508H) (human, UniProt P07766 23-126; P04234 22-105); assay: SPR (Biacore T200), antigen amine-coupled on CM5, antibody as analyte, 1:1 fit; D14 sample after 14 days at 40 C
[9] = molecular target: T3, human CD3 antigen (SB, Cat: …); assay: SPR (Biacore T200), CD3 antigen amine-coupled on CM5, antibody as analyte, 1:1 fit
[10] = molecular target: T3, human CD3 antigen (SB, Cat: …); assay: SPR (Biacore T200), antigen amine-coupled on CM5, antibody as analyte, 1:1 fit; D0 sample

Row | Binder | Kd [1] [nM] | cell bridging of HCT116 and Jurkat cells (CFSE/PKH26 double-positive cells, flow cytometry) [2] | cell bridging of HCT116 and Jurkat cells (CFSE/PKH26 double-positive cells, flow cytometry) (CD3 on Jurkat cells [3]) | EC50 [4] [nM] | Kd [5] [nM] | EC50 (read off the curve), cell bridging of HCT116 and Jurkat [panel C] [6] [ng/mL] | EC50 (read off the curve), cell bridging of HCT116 and Jurkat [panel C] (CD3 on Jurkat cells [7]) [ng/mL] | Kd [8] [nM] | Kd [9] [nM] | Kd [10] [nM]
1 | B1 | 17.3 | ~40 % of the total PKH26-positive cells | ~40 % of the total PKH26-positive cells | 3.56 | 17.1 | ~10 | ~10 | – | – | –
2 | B2 | 22.6 | ~40 % of the total PKH26-positive cells | ~40 % of the total PKH26-positive cells | 3.72 | 20 | ~10 | ~10 | 31.5 | 28.3 | 28.3
3 | B3 | 22.6 | – | – | 5.65 | 21.1 | – | – | 30.6 | 28.8 | 28.8
